Measurements reported in IntAct's records for PubMed 22483112.

Molecular target: myh9_human MYH9 (UniProt P35579)
Sequence (P35579 whole entry): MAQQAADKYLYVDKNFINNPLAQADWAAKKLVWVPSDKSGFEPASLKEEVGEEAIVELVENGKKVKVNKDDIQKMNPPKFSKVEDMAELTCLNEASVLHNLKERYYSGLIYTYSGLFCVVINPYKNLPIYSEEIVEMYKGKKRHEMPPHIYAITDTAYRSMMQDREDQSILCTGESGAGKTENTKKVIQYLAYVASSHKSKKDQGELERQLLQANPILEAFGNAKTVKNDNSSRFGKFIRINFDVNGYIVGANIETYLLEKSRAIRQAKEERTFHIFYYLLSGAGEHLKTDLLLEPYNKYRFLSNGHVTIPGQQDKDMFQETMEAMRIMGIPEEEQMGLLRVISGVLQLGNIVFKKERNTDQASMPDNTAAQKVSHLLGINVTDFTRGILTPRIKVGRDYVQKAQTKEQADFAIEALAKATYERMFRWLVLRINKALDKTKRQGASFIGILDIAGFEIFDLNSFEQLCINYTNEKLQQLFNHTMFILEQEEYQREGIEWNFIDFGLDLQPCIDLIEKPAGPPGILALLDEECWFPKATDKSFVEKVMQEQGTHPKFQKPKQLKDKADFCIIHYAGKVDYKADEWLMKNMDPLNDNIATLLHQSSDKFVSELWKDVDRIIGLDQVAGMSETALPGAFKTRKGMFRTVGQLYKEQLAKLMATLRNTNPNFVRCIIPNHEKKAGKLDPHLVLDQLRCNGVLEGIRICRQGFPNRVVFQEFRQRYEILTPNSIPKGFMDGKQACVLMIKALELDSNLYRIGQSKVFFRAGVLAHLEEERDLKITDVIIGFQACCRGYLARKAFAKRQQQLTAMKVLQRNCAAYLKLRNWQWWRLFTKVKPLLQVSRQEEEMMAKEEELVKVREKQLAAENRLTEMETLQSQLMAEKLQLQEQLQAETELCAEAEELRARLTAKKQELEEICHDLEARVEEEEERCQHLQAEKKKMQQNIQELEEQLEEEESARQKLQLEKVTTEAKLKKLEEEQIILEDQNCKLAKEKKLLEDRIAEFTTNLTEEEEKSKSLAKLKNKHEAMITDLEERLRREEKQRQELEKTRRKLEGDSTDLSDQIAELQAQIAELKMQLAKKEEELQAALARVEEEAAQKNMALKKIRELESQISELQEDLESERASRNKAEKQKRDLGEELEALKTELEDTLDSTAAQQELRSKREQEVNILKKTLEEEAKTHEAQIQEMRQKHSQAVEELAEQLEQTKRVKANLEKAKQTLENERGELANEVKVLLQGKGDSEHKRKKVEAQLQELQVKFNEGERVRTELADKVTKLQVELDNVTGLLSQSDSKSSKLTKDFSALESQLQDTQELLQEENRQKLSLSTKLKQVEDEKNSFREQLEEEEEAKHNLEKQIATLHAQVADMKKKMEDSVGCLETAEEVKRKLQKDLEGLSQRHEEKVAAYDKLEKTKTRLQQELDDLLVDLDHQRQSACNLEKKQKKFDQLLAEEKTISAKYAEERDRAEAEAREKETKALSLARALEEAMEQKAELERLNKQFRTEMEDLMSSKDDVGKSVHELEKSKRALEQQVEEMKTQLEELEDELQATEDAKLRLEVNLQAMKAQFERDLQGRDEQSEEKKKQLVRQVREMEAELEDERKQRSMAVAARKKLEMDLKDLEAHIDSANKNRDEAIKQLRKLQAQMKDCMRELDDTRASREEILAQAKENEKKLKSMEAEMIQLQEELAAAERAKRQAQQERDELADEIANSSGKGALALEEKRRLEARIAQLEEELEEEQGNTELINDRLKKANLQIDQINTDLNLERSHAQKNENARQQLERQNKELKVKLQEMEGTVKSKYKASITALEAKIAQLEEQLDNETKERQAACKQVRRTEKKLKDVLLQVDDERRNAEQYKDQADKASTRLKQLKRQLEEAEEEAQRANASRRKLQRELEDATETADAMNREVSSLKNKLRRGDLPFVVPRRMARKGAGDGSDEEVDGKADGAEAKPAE

Sequence of Protein S100-A4 (Homo sapiens), P26447 C81D (P26447 whole entry C81D): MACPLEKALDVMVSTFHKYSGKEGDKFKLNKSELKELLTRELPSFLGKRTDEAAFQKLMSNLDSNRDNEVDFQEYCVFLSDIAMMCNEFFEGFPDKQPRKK

| effect of a mutation on the interaction | Substance |
| --- | --- |
| disrupting interaction strength | Protein S100-A4 (Homo sapiens), P26447 C81D |
| disrupting interaction strength | Protein S100-A4 (Homo sapiens), P26447 V77D |
